Data taken from US20210332142A1 (Genentech, published 2021).

T1: human Tie1 (human, UniProt P35590 22-759)
T1 construct: extracellular domain
T1 sequence (looked up): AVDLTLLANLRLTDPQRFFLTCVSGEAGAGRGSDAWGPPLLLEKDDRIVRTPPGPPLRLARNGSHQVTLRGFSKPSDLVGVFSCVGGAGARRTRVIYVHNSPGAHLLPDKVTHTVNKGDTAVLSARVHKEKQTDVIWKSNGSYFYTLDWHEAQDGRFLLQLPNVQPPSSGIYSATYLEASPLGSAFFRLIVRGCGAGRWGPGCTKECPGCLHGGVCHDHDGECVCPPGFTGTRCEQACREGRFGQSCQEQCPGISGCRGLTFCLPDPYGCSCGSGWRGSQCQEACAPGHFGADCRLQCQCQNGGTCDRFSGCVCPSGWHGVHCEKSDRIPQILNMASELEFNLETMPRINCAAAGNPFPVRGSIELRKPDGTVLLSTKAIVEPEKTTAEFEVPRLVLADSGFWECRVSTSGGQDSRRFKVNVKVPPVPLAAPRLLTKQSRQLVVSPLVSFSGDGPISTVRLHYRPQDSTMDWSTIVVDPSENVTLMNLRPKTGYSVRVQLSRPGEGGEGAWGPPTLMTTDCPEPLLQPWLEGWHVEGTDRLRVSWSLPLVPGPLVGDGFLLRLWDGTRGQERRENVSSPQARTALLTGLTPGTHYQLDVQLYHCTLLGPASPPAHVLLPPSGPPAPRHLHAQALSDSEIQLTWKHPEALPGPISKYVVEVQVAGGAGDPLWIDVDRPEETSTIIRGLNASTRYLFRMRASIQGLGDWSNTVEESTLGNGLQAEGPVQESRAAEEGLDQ


Experiments:
human Tie1 = biological target: T1, human Tie1; experiment: ELISA: human Tie1 immobilized, serial dilutions of IgG, anti-huFc-HRP
Text: (§1) Plates were washed and detected with anti-huFC-conjugated HRP secondary antibody using the methods above.
The binding ELISA was also used with immobilized Tie1 protein to assess Tie1 binding.

omalizumab = biological target: T2, omalizumab; experiment: phage ELISA
T2 construct: Used as irrelevant coated protein; also called irrelevant Fc-containing protein; not shown: the constant regions

mouse Tie2 ECD5 = biological target: T3, mouse Tie2 ECD5 (mouse, UniProt Q02858 23-442, limits assumed); experiment: ELISA: mouse Tie2 ECD5 construct immobilized, serial dilutions of IgG, anti-huFc-HRP
T3 construct: domain: ECD5 (Ig1, Ig2, EGF and Ig3 domains); also called mECD5
T3 sequence (Q02858 23-442 limits assumed): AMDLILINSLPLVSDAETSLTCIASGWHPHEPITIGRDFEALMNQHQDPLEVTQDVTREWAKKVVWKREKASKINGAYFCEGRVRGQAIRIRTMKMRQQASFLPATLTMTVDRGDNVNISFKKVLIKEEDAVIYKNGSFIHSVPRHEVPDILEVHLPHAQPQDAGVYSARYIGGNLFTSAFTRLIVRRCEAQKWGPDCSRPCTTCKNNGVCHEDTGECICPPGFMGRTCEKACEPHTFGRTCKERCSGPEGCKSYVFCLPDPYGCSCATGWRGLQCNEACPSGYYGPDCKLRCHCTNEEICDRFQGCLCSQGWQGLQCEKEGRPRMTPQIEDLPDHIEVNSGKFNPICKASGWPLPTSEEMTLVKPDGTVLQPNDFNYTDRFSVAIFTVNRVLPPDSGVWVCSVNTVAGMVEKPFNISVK
Text: as §1

rat Tie2ECD.flag = biological target: T4, rat Tie2ECD.flag (rat, UniProt A0ABK0L6J5 19-740); experiment: Biacore, hIgG captured, 25C
T4 construct: extracellular domain; also called rTie2.flag; not shown: C-terminal Flag tag
Method: (§2) Monovalent affinities of selected anti-Tie2 hIgGs were determined using a Biacore T200 instrument (GE Life Sciences). Anti-humanFc was covalently immobilized on a Series S CM5 Biacore sensor chip to enable non-covalent capture of anti-Tie2 antibodies and binding of human or rat Tie2ECD.flag was monitored in real time at 25° C. using a multi-cycle kinetics experiment format. Between cycles, the surface was regenerated with 3 M MgCl₂. Monovalent affinities were determined by kinetic analysis, using Biacore Evaluation Software (GE Life Sciences) to fit a 1:1 binding model to the data.

human Tie2ECD.flag = biological target: T5, human Tie2ECD.flag (human, UniProt Q02763 23-748); experiment: Biacore, hIgG captured, 25C
T5 construct: also called hTie2.flag; not shown: C-terminal Flag tag
T5 sequence (Q02763 23-748 limits assumed): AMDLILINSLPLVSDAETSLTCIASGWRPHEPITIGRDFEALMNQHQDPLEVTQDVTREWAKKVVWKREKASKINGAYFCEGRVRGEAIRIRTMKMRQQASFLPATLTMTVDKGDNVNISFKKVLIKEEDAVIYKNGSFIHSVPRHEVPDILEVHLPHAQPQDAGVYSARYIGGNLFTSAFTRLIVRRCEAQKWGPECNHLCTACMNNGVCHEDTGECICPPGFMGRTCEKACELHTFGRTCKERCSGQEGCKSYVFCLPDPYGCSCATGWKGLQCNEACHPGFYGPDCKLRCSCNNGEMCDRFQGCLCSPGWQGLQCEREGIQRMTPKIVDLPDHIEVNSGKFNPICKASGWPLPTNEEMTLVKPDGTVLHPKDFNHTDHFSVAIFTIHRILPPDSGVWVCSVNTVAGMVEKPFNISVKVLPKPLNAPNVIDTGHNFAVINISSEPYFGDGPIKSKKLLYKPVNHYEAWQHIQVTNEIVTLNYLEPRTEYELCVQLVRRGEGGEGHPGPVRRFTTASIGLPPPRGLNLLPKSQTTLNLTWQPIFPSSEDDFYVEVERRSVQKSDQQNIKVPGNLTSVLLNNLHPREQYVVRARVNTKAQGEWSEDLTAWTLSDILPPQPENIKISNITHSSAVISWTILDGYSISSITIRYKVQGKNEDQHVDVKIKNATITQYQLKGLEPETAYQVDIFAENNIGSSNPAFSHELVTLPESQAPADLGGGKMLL
Method: as §2

[1] = biological target: T6, human Tie2 ECD5 (extracellular domain without the FN3 domains; Ig1, Ig2, EGF and Ig3 domains) (human, UniProt Q02763 23-442); experiment: ELISA: human Tie2 ECD5 construct immobilized, serial dilutions of IgG, anti-huFc-HRP
T6 construct: whole entry named; also called huECD5; hECD5; not shown: C-terminal carrier of the coated construct (hIgG1 Fc or Flag tag)
T6 sequence (Q02763 23-442 limits assumed): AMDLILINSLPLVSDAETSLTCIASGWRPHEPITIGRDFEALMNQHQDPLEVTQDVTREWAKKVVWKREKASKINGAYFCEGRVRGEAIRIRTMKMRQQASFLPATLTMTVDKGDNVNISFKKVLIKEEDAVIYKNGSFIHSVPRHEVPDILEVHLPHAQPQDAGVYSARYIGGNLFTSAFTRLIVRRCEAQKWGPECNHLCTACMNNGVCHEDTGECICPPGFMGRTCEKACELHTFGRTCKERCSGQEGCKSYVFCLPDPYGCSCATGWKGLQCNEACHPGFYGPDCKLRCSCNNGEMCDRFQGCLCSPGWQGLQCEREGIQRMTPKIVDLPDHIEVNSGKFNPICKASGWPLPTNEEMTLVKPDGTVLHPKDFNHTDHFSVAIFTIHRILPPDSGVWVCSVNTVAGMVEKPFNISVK
Text: as §1

[2] = biological target: T7, mouse Tie2 full extracellular domain (mouse, UniProt Q02858 23-746); experiment: phage ELISA
T7 construct: extracellular domain; also called mFullECD
T7 sequence (Q02858 23-746): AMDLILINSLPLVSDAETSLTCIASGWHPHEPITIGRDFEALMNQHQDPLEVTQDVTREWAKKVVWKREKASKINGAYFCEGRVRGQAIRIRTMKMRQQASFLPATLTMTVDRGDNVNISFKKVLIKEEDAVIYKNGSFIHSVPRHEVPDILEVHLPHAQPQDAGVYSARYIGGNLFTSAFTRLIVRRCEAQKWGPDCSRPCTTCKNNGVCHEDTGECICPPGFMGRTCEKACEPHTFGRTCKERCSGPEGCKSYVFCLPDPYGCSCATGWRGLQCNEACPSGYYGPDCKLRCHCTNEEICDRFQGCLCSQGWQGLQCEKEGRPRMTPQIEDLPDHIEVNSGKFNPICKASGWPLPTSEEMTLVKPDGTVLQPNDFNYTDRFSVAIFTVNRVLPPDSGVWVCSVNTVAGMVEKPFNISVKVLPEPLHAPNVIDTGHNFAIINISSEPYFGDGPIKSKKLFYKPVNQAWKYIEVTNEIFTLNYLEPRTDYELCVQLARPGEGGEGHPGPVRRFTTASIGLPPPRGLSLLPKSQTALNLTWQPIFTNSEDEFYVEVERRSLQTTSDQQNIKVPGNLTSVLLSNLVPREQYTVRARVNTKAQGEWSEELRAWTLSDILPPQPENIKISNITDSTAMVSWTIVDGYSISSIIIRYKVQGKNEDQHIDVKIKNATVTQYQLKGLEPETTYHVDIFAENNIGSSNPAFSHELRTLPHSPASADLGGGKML
Method: Clones from the fourth round were screened for Tie2 binding and specificity by ELISA. Screening ELISAs were carried out by coating the wells of a 96-well microtiter plate with Tie2 protein or irrelevant protein at 65 ul per well (1 ug/ml in coating buffer) at 4° C. overnight. In a 96-tube plate, colonies from the fourth round were grown overnight at 37° C. in 400 ul 2YT media with 50 ug/ml carbenicillin and helper phage K07. The plate was spun down at 3000 rpm for 10 min. 30 ul of the culture supernatant was added with 60 ul of ELISA buffer (PBS with 0.5% BSA and 0.05% Tween20) to the Tie2-coated plate and incubated at room temperature for 1 hr. Plates were washed with PBS—0.05% Tween20 and 100 ul/well of horseradish peroxidase (HRP)-conjugated anti-M13 antibody (1/5000 dilution in PBS plus 0.5% BSA and 0.05% Tween20) at room temperature for 30 min (Sidhu et al., supra). The wells were washed with PBS—0.05% Tween20 prior to 100 ul/well of a 1:1 ratio of 3,3′,5,5′-tetramethylbenzidine (TMB) peroxidase substrate and Peroxidase Solution B (H₂O₂) ((Kirkegaard-Perry Laboratories (Gaithersburg, Md.)) being added per well and incubated for 5 min at room temperature. The reaction was stopped by adding 100 ul 1M phosphoric Acid (H₃PO₄) per well and the OD of wells was determined using a standard ELISA plate reader at 450 nm.

binding result (human Tie1) | binding result (omalizumab) | EC50 (read off the curve) (mouse Tie2 ECD5) [nM] | Kd (rat Tie2ECD.flag) [nM] | Kd (human Tie2ECD.flag) [nM] | EC50 (read off the curve) [1] [nM] | binding result [2] | Binder
no binding (tested: 200 nM) | no binding | ~1 | 116 | 52 | ~1 |  | Tie2.12 (antibody, IgG1, V domains shown, hIgG1 in later assays; also called Ab12) VH: EVQLVESGGGLVQPGGSLRLSCAASGFTFSSYWIHWVRQAPGKGLEWVAAISPNDGSTYYADSVKGRFTISADTSKNTAYLQMNSLRAEDTAVYYCARSRYYGQRLVYYVMDYWGQGTLVTVSS VL: DIQMTQSPSSLSASVGDRVTITCRASQDVSTAVAWYQQKPGKAPKLLIYSASFLYSGVPSRFSGSGSGTDFTLTISSLQPEDFATYYCQQSYTTPPTFGQGTKVEIKR
 | no binding |  | 2800 | 822 |  | binds | Tie2.24 (antibody, IgG1, V domains shown, hIgG1 in later assays; also called Ab24) VH: EVQLVESGGGLVQPGGSLRLSCAASGFTFTSSGISWVRQAPGKGLEWVATINPYGGDTYYADSVKGRFTISADTSKNTAYLQMNSLRAEDTAVYYCARFYRFLSSGMDYWGQGTLVTVSS VL: DIQMTQSPSSLSASVGDRVTITCRASQDVSTAVAWYQQKPGKAPKLLIYSASFLYSGVPSRFSGSGSGTDFTLTISSLQPEDFATYYCQQSYTTPPTFGQGTKVEIKR
